Consider four molecules from US20210087239A1 (ACADEMIA SINICA, published 2021).

B1: Paraspeckle component 1 (PSPC1), human (other)
chain: MMLRGNLKQVRIEKNPARLRALESAVGESEPAAAAAMALALAGEPAPPAPAPPEDHPDEEMGFTIDIKSFLKPGEKTYTQRCRLFVGNLPTDITEEDFKRLFERYGEPSEVFINRDRGFGFIRLESRTLAEIAKAELDGTILKSRPLRIRFATHGAALTVKNLSPVVSNELLEQAFSQFGPVEKAVVVVDDRGRATGKGFVEFAAKPPARKALERCGDGAFLLTTTPRPVIVEPMEQFDDEDGLPEKLMQKTQQYHKEREQPPRFAQPGTFEFEYASRWKALDEMEKQQREQVDRNIREAKEKLEAEMEAARHEHQLMLMRQDLMRRQEELRRLEELRNQELQKRKQIQLRHEEEHRRREEEMIRHREQEELRRQQEGFKPNYMENREQEMRMGDMGPRGAINMGDAFSPAPAGNQGPPPMMGMNMNNRATIPGPPMGPGPAMGPEGAANMGTPMMPDNGAVHNDRFPQGPPSQMGSPMGSRTGSETPQAPMSGVGPVSGGPGGFGRGSQGGNFEGPNKRRRY
notes: Endogenous PSPC1 of human HCC cell lines (Huh-7, Mahlavu); also called endogenous PSPC1; nuclear PSPC1

The target of assay [1] is T1, β-catenin (human, UniProt P35222 2-781).
T1 construct: Endogenous protein co-immunoprecipitated from cell lysates or nuclear fractions; also called nuclear β-catenin
T1 sequence (looked up): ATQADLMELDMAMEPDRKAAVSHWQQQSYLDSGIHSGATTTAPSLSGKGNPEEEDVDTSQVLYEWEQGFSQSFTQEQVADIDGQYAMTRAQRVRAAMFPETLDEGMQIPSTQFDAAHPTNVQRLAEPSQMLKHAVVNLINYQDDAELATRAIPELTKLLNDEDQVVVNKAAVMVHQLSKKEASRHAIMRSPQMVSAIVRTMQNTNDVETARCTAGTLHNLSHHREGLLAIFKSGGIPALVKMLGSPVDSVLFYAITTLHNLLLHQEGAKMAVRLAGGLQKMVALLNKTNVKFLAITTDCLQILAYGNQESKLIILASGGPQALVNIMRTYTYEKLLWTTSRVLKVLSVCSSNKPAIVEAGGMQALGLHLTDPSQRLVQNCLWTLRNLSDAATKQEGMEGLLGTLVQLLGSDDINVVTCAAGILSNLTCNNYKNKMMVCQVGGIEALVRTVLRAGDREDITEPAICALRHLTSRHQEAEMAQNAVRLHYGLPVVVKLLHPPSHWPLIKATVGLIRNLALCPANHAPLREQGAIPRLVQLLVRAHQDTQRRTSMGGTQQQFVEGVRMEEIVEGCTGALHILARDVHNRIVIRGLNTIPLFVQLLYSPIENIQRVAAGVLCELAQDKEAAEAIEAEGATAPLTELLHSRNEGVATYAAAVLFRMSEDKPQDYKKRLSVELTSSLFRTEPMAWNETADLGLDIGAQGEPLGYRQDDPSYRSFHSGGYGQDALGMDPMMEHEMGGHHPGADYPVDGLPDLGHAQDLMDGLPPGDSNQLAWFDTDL
Put plainly: IP/western blotting, Huh-7 cells with HGF stimulation (FIG. 3b). How it is done:
(§1) (a-b) Huh-7 treated with or without HGF (10 ng/ml) for EMT induction. Under HGF stimulation, nuclear PSPC1 interacted with β-catenin and loss of PTK6 interaction owing to an increase of cytosolic PTK6 accumulation in HGF-induced EMT model in IP/westem blotting analysis. Arrowhead is the IgG heavy chain. Arrows are indicated proteins after IB. (c) Nuclear (SP1 as marker) and cytosolic (α-tubulin as marker) localization of PSPC1/PTK6 interaction and β-catenin analyzed by western blotting analysis in SK-hep1 cells. PSPC1-Y523F mutant further enhanced nuclear localization of β-catenin. (d) Nuclear (SP1 as marker) localization of PSPC1/PTK6 interaction and βcatenin analyzed by IP/western blotting analysis in SK-hep1 cells. Y523F PSPC1 mutant further enhanced nuclear interaction with β-catenin but not PTK6. […] Promoter activation (fold) was calculated relative to vector alone (Mock) in cells. […] (h) Secreted cytokines Wnt1 and Wnt3a protein expression measured by ELISA assays of conditional medium after transfection of divergent PSPC1/PTK6 expression constructs in SK-hep1 cells.

The target of assay [2] is T1, β-catenin. Put plainly: IP/western blotting of nuclear fraction, SK-hep1 cells (FIG. 3d). The procedure:
as §1

Assay [3] deals with T2, HA-tagged PSPC1 (wild type) (human, UniProt Q8WXF1 1-523).
T2 construct: Full-length PSPC1 cDNA cloned into pcDNA3.0-HA and expressed in 293T or SK-hep1 cells; also called HA-PSPC1; wild-type PSPC1; not shown: HA tag from the pcDNA3.0-HA plasmid
T2 sequence: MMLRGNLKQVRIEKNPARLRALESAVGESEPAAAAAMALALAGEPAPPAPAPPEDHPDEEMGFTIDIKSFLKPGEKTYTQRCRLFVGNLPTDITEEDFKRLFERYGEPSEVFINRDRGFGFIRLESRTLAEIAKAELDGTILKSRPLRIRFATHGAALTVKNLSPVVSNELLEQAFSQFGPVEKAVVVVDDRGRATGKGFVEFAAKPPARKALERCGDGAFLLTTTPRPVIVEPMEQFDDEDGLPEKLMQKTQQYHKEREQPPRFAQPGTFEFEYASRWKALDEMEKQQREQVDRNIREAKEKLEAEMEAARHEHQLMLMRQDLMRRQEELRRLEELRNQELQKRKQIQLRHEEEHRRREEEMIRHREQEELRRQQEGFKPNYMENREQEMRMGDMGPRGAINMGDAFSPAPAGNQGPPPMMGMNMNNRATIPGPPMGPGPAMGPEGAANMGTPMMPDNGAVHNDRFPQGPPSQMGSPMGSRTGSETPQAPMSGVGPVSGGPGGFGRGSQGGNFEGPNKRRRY
Put plainly: subcellular fractionation and western blotting, SK-hep1 cells (FIG. 1e).

Assay [4] concerns the target B1. Kind of assay: conclusion drawn from expression and fractionation experiments in Mahlavu cells; no direct binding assay described.

Take B1: the binding result with β-catenin [1] is on record as “binds”.

B2: PSPC1-Y523F mutant (HA-tagged) (other)
chain: MMLRGNLKQVRIEKNPARLRALESAVGESEPAAAAAMALALAGEPAPPAPAPPEDHPDEEMGFTIDIKSFLKPGEKTYTQRCRLFVGNLPTDITEEDFKRLFERYGEPSEVFINRDRGFGFIRLESRTLAEIAKAELDGTILKSRPLRIRFATHGAALTVKNLSPVVSNELLEQAFSQFGPVEKAVVVVDDRGRATGKGFVEFAAKPPARKALERCGDGAFLLTTTPRPVIVEPMEQFDDEDGLPEKLMQKTQQYHKEREQPPRFAQPGTFEFEYASRWKALDEMEKQQREQVDRNIREAKEKLEAEMEAARHEHQLMLMRQDLMRRQEELRRLEELRNQELQKRKQIQLRHEEEHRRREEEMIRHREQEELRRQQEGFKPNYMENREQEMRMGDMGPRGAINMGDAFSPAPAGNQGPPPMMGMNMNNRATIPGPPMGPGPAMGPEGAANMGTPMMPDNGAVHNDRFPQGPPSQMGSPMGSRTGSETPQAPMSGVGPVSGGPGGFGRGSQGGNFEGPNKRRRF
notes: All PSPC1 mutants were generated in a pCDNA3.0-HA plasmid; also called Y523F PSPC1 mutant; HA-tagged Y523F mutant; not shown: HA tag from the pCDNA3.0-HA plasmid
As to B2, the binding result with β-catenin [2] is “binds”.

B3: Flag-tagged PTK6 kinase-dead mutant (PTK6-K219M) (enzyme)
chain: not shown
notes: also called PTK6-KM; KM mutant; not shown: Flag tag
For the molecule B3, the binding result in assay [3] is given as “no binding”.

B4: EGFP-conjugated PSPC1-CT131 (PSPC1 C-terminal 131 fragment) (other)
chain: MGDMGPRGAINMGDAFSPAPAGNQGPPPMMGMNMNNRATIPGPPMGPGPAMGPEGAANMGTPMMPDNGAVHNDRFPQGPPSQMGSPMGSRTGSETPQAPMSGVGPVSGGPGGFGRGSQGGNFEGPNKRRRY
notes: PSPC1-CT131 cloned into pEGFP-C2 and expressed in Mahlavu cells; also called PSPC1-CT131-EGFP; EGFP-PSPC1-CT; not shown: EGFP from the pEGFP-C2 plasmid
Consider B4, for which, in assay [4], the binding result is given as “binds”.
